The record followed here is PMC7873046, “Structure of the Complete Dimeric Human GDAP1 Core Domain Provides Insights into Ligand Binding and Clustering of Disease Mutations” (Frontiers in Molecular Biosciences, 2021).

Substitutions are numbered along the chain they refer to.

The target in one data set is T1, GDAP1∆295-358 (Homo sapiens, UniProt Q8TB36).
T1 construct: C-terminally truncated (residues 295-358 deleted), alpha-loop insertion kept; N-terminal tag cut with TEV; E. coli BL21(DE3); monomer/dimer equilibrium
T1 sequence (Q8TB36 1-294): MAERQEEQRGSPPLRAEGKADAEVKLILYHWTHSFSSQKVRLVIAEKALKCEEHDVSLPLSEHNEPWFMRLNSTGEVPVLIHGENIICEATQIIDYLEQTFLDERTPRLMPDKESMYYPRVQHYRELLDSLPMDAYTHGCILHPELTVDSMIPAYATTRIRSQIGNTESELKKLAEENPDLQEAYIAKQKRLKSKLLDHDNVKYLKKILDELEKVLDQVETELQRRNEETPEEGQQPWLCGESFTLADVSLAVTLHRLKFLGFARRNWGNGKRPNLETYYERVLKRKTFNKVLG
Kind of data set: isothermal titration calorimetry. The format is binding. The source says:
isothermal titration calorimetry on GDAP1∆295-358

For another data set, the target named is T2, GDAP1∆319-358 (Homo sapiens, UniProt Q8TB36).
T2 construct: C-terminally truncated (residues 319-358 deleted; hydrophobic and transmembrane region), alpha-loop insertion kept; N-terminal tag cut with TEV; E. coli BL21(DE3); monomer/dimer equilibrium
T2 sequence (Q8TB36 1-318): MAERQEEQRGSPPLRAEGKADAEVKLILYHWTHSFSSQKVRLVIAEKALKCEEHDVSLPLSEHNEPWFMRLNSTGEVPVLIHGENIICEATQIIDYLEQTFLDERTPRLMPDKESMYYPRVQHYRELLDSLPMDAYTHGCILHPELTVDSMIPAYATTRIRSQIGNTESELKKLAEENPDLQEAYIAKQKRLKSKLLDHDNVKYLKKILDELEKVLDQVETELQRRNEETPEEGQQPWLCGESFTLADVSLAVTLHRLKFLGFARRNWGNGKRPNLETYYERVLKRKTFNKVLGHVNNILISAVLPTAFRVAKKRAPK
Kind of data set: differential scanning fluorimetry (SYPRO Orange). The settings on record: pH 7.5, 300 mM NaCl, 2% DMSO; HA titrated up to 250 µM. Type of data set: binding. Background: DSF heats the sample and reads unfolding from a dye or from intrinsic fluorescence.

Data set [1] concerns the molecule itself. Kind of data set: SEC-SAXS; 50 µL of protein at 8.5-10 mg/ml injected into BioSEC3-300 or Superdex 75 10/300 GL increase; 25 mM HEPES pH 7.5, 300 mM NaCl; +15 °C; GDAP1∆295-358 and GDAP1∆319-358 also with hexadecanedioic acid (HA), which gave a higher monomer fraction. In general terms: In gel filtration, larger molecules generally elute earlier.
Data set [2] concerns the molecule itself. Kind of data set: non-reducing SDS-PAGE; SEC eluates of purified proteins on a non-reducing gel (GDAP1L1 also on a reducing gel); shows the covalent (disulfide) dimer.
Data set [3] concerns the molecule itself. Kind of data set: SEC-MALS; Superdex 75 10/300 GL increase in SEC buffer (25 mM HEPES pH 7.5, 300 mM NaCl); protein 1-10 mg/ml, 15-150 µg injected.

What is called Kd is the constant that tells how readily two partners part at equilibrium. A lower Kd goes with higher affinity. `O=C(O)CCCCCCCCCCCCCCC(=O)O` [hexadecanedioic acid] gave a Kd at GDAP1∆295-358 of 2000 ± 800 nM. The dTm at GDAP1∆319-358 is ~ 3 °C.

B1: GDAP1∆319-358 (domain or fragment, human, UniProt Q8TB36 1-318, looked up)
chain: T2 sequence (Q8TB36 1-318)
notes: The constructs were put into pTH27 (N-terminal His6) and pDEST-Trx (N-terminal thioredoxin); Tag cleaved with TEV protease; also called ganglioside-induced differentiation-associated protein 1, C-terminally truncated; source: E. coli BL21 (DE3), purified (Ni-NTA, TEV cleavage, SEC); not shown: His6, N-terminal, cleaved
In general, stoichiometry N refers to a count of units in the complex or per binding partner. On to B1, for which, in data set [1], the “stoichiometry N” value was determined as 2.

B2: GDAP1∆303-358 Y29F (domain or fragment, human, UniProt Q8TB36 1-302, looked up)
chain: MAERQEEQRGSPPLRAEGKADAEVKLILFHWTHSFSSQKVRLVIAEKALKCEEHDVSLPLSEHNEPWFMRLNSTGEVPVLIHGENIICEATQIIDYLEQTFLDERTPRLMPDKESMYYPRVQHYRELLDSLPMDAYTHGCILHPELTVDSMIPAYATTRIRSQIGNTESELKKLAEENPDLQEAYIAKQKRLKSKLLDHDNVKYLKKILDELEKVLDQVETELQRRNEETPEEGQQPWLCGESFTLADVSLAVTLHRLKFLGFARRNWGNGKRPNLETYYERVLKRKTFNKVLGHVNNILIS
notes: Point mutant of m2, made by site-directed mutagenesis PCR; source: E. coli BL21 (DE3), purified (Ni-NTA, TEV cleavage, SEC); not shown: His6, N-terminal, cleaved
For the molecule B2, in data set [2], the “stoichiometry N” value was 2.

B3: GDAP1∆303-358 (domain or fragment, human, UniProt Q8TB36 1-302, looked up)
chain: B2 chain with F29Y
notes: The constructs were put into pTH27 (N-terminal His6) and pDEST-Trx (N-terminal thioredoxin); Tag cleaved with TEV protease; also called complete human GDAP1 core domain; source: E. coli BL21 (DE3), purified (Ni-NTA, TEV cleavage, SEC); not shown: His6, N-terminal, cleaved
Regarding B3, in data set [3], the “stoichiometry N” value is 2.

B4: GDAP1∆295-358 (domain or fragment, human, UniProt Q8TB36 1-294, looked up)
chain: T1 sequence (Q8TB36 1-294)
notes: The constructs were put into pTH27 (N-terminal His6) and pDEST-Trx (N-terminal thioredoxin); also called ganglioside-induced differentiation-associated protein 1, C-terminally truncated; GDAP1 core domain; source: E. coli BL21 (DE3), purified (Ni-NTA, TEV cleavage, SEC); not shown: His6, N-terminal, cleaved
In the case of B4, the “stoichiometry N” value in data set [1] was found to be 2.
